From patent US20250269012A1 (AKAMIS BIO, published 2025)

T1: EpCAM (human, UniProt P16422 24-314)
T1 construct: whole, on cells; also called EpCAM cell surface target antigen on A549 and SKOV3 cells
T1 sequence (looked up): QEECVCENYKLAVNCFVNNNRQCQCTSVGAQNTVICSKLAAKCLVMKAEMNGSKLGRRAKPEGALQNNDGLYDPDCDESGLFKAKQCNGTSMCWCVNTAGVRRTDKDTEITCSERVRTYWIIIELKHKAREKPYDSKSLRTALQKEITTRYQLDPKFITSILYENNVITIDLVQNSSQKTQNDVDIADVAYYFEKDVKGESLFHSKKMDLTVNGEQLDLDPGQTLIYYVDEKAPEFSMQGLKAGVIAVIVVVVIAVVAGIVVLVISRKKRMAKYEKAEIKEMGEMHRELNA

B1: anti-EpCAM-ScFv-human CD19 EC domain fusion protein (without a C-terminal tag) (other)
chain: ELVMTQSPSSLTVTAGEKVTMSCKSSQSLLNSGNQKNYLTWYQQKPGQPPKLLIYWASTRESGVPDRFTGSGSGTDFTLTISSVQAEDLAVYYCQNDYSYPLTFGAGTKLEIKGGGGSGGGGSGGGGSEVQLLEQSGAELVRPGTSVKISCKASGYAFTNYWLGWVKQRPGHGLEWIGDIFPGSGNIHYNEKFKGKATLTADKSSSTAYMQLSSLTFEDSAVYFCARLRNWDEPMDYWGQGTTVTVSSGGGGSPEEPLVVKVEEGDNAVLQCLKGTSDGPTQQLTWSRESPLKPFLKLSLGLPGLGIHMRPLAIWLFIFNVSQQMGGFYLCQPGPPSEKAWQPGWTVNVEGSGELFRWNVSDLGGLGCGLKNRSSEGPSSPSGKLMSPKLYVWAKDRPEIWEGEPPCVPPRDSLNQSLSQDLTMAPGSTLWLSCGVPPDSVSRGPLSWTHVHPKGPKSLLSLELKDDRPARDMWVMETGLLLPRATAQDAGKYYCHRGNLTMSFHLEITARPVLWHWLLRTGGWK
notes: also called bispecific protein of NG-1109
B2: anti-EpCAM-ScFv-RAET1G3 fusion protein (without a C-terminal tag) (other)
chain: ELVMTQSPSSLTVTAGEKVTMSCKSSQSLLNSGNQKNYLTWYQQKPGQPPKLLIYWASTRESGVPDRFTGSGSGTDFTLTISSVQAEDLAVYYCQNDYSYPLTFGAGTKLEIKGGGGSGGGGSGGGGSEVQLLEQSGAELVRPGTSVKISCKASGYAFTNYWLGWVKQRPGHGLEWIGDIFPGSGNIHYNEKFKGKATLTADKSSSTAYMQLSSLTFEDSAVYFCARLRNWDEPMDYWGQGTTVTVSSGGGGSGLADPHSLCYDITVIPKFRPGPRWCAVQGQVDEKTFLHYDCGSKTVTPVSPLGKKLNVTTAWKAQNPVLREVVDILTEQLLDIQLENYIPKENRMWTTVHPGARKMKEKWENDKDMTMSFHYISMGDCTGWLEDFLMGMDSTLEPSAGGTV
notes: also called bispecific protein of NG-1111
B3: anti-EpCAM-ScFv-flexible linker-human CD19 EC domain fusion protein (without a C-terminal tag) (other)
chain: ELVMTQSPSSLTVTAGEKVTMSCKSSQSLLNSGNQKNYLTWYQQKPGQPPKLLIYWASTRESGVPDRFTGSGSGTDFTLTISSVQAEDLAVYYCQNDYSYPLTFGAGTKLEIKGGGGSGGGGSGGGGSEVQLLEQSGAELVRPGTSVKISCKASGYAFTNYWLGWVKQRPGHGLEWIGDIFPGSGNIHYNEKFKGKATLTADKSSSTAYMQLSSLTFEDSAVYFCARLRNWDEPMDYWGQGTTVTVSSGAGGSGGSSGSDGASGSRPEEPLVVKVEEGDNAVLQCLKGTSDGPTQQLTWSRESPLKPFLKLSLGLPGLGIHMRPLAIWLFIFNVSQQMGGFYLCQPGPPSEKAWQPGWTVNVEGSGELFRWNVSDLGGLGCGLKNRSSEGPSSPSGKLMSPKLYVWAKDRPEIWEGEPPCVPPRDSLNQSLSQDLTMAPGSTLWLSCGVPPDSVSRGPLSWTHVHPKGPKSLLSLELKDDRPARDMWVMETGLLLPRATAQDAGKYYCHRGNLTMSFHLEITAR
notes: also called bispecific protein of NG-1113; bispecific protein of NG-1115
B4: anti-EpCAM-ScFv-rigid linker-human CD19 EC domain fusion protein (without a C-terminal tag) (other)
chain: ELVMTQSPSSLTVTAGEKVTMSCKSSQSLLNSGNQKNYLTWYQQKPGQPPKLLIYWASTRESGVPDRFTGSGSGTDFTLTISSVQAEDLAVYYCQNDYSYPLTFGAGTKLEIKGGGGSGGGGSGGGGSEVQLLEQSGAELVRPGTSVKISCKASGYAFTNYWLGWVKQRPGHGLEWIGDIFPGSGNIHYNEKFKGKATLTADKSSSTAYMQLSSLTFEDSAVYFCARLRNWDEPMDYWGQGTTVTVSSTPSHLSHILPSFGLPTFNPEEPLVVKVEEGDNAVLQCLKGTSDGPTQQLTWSRESPLKPFLKLSLGLPGLGIHMRPLAIWLFIFNVSQQMGGFYLCQPGPPSEKAWQPGWTVNVEGSGELFRWNVSDLGGLGCGLKNRSSEGPSSPSGKLMSPKLYVWAKDRPEIWEGEPPCVPPRDSLNQSLSQDLTMAPGSTLWLSCGVPPDSVSRGPLSWTHVHPKGPKSLLSLELKDDRPARDMWVMETGLLLPRATAQDAGKYYCHRGNLTMSFHLEITAR
notes: also called bispecific protein of NG-1114; bispecific protein of NG-1116
B5: anti-EpCAM-ScFv-flexible linker-RAET1G3 fusion protein (without a C-terminal tag) (other)
chain: ELVMTQSPSSLTVTAGEKVTMSCKSSQSLLNSGNQKNYLTWYQQKPGQPPKLLIYWASTRESGVPDRFTGSGSGTDFTLTISSVQAEDLAVYYCQNDYSYPLTFGAGTKLEIKGGGGSGGGGSGGGGSEVQLLEQSGAELVRPGTSVKISCKASGYAFTNYWLGWVKQRPGHGLEWIGDIFPGSGNIHYNEKFKGKATLTADKSSSTAYMQLSSLTFEDSAVYFCARLRNWDEPMDYWGQGTTVTVSSGAGGSGGSSGSDGASGSRGLADPHSLCYDITVIPKFRPGPRWCAVQGQVDEKTFLHYDCGSKTVTPVSPLGKKLNVTTAWKAQNPVLREVVDILTEQLLDIQLENYIPKENRMWTTVHPGARKMKEKWENDKDMTMSFHYISMGDCTGWLEDFLMGMDSTLEPSAGGTV
notes: also called bispecific protein of NG-1117
B6: anti-EpCAM-ScFv-rigid linker-RAET1G3 fusion protein (without a C-terminal tag) (other)
chain: ELVMTQSPSSLTVTAGEKVTMSCKSSQSLLNSGNQKNYLTWYQQKPGQPPKLLIYWASTRESGVPDRFTGSGSGTDFTLTISSVQAEDLAVYYCQNDYSYPLTFGAGTKLEIKGGGGSGGGGSGGGGSEVQLLEQSGAELVRPGTSVKISCKASGYAFTNYWLGWVKQRPGHGLEWIGDIFPGSGNIHYNEKFKGKATLTADKSSSTAYMQLSSLTFEDSAVYFCARLRNWDEPMDYWGQGTTVTVSSTPSHLSHILPSFGLPTFNGLADPHSLCYDITVIPKFRPGPRWCAVQGQVDEKTFLHYDCGSKTVTPVSPLGKKLNVTTAWKAQNPVLREVVDILTEQLLDIQLENYIPKENRMWTTVHPGARKMKEKWENDKDMTMSFHYISMGDCTGWLEDFLMGMDSTLEPSAGGTV
notes: also called bispecific protein of NG-1118
B7: human CD19 EC domain-anti-EpCAM-ScFv fusion protein (without a C-terminal tag) (other)
chain: PEEPLVVKVEEGDNAVLQCLKGTSDGPTQQLTWSRESPLKPFLKLSLGLPGLGIHMRPLAIWLFIFNVSQQMGGFYLCQPGPPSEKAWQPGWTVNVEGSGELFRWNVSDLGGLGCGLKNRSSEGPSSPSGKLMSPKLYVWAKDRPEIWEGEPPCVPPRDSLNQSLSQDLTMAPGSTLWLSCGVPPDSVSRGPLSWTHVHPKGPKSLLSLELKDDRPARDMWVMETGLLLPRATAQDAGKYYCHRGNLTMSFHLEITARPVLWHWLLRTGGWKGGGGSELVMTQSPSSLTVTAGEKVTMSCKSSQSLLNSGNQKNYLTWYQQKPGQPPKLLIYWASTRESGVPDRFTGSGSGTDFTLTISSVQAEDLAVYYCQNDYSYPLTFGAGTKLEIKGGGGSGGGGSGGGGSEVQLLEQSGAELVRPGTSVKISCKASGYAFTNYWLGWVKQRPGHGLEWIGDIFPGSGNIHYNEKFKGKATLTADKSSSTAYMQLSSLTFEDSAVYFCARLRNWDEPMDYWGQGTTVTVSS
notes: also called bispecific protein of NG-1110
B8: RAET1G3-anti-EpCAM-ScFv fusion protein (without a C-terminal tag) (other)
chain: GLADPHSLCYDITVIPKFRPGPRWCAVQGQVDEKTFLHYDCGSKTVTPVSPLGKKLNVTTAWKAQNPVLREVVDILTEQLLDIQLENYIPKENRMWTTVHPGARKMKEKWENDKDMTMSFHYISMGDCTGWLEDFLMGMDSTLEPSAGGTVGGGGSELVMTQSPSSLTVTAGEKVTMSCKSSQSLLNSGNQKNYLTWYQQKPGQPPKLLIYWASTRESGVPDRFTGSGSGTDFTLTISSVQAEDLAVYYCQNDYSYPLTFGAGTKLEIKGGGGSGGGGSGGGGSEVQLLEQSGAELVRPGTSVKISCKASGYAFTNYWLGWVKQRPGHGLEWIGDIFPGSGNIHYNEKFKGKATLTADKSSSTAYMQLSSLTFEDSAVYFCARLRNWDEPMDYWGQGTTVTVSS
notes: also called bispecific protein of NG-1112

Target: T1, EpCAM
Experiment: flow cytometry, supernatant of transfected A549 cells on fresh A549 cells
Protocol: These plasmids were transfected into A549 human lung tumour cells and cells cultured for 72 hours. Cell culture supernatants (SN) containing secreted bispecific proteins were collected and added to fresh untransfected A549 cells in suspension and incubated for 1.5 hours at room temperature. During this time, the bispecific proteins present in the SN can bind to the A549 cells through their anti-EpCAM ScFv or anti-HER2 ScFV portion. […] For designs having CD19 as CAR-T target, the CD19 extracellular domain portion of the protein was detected by flow cytometry using an anti-CD19 antibody.

Binder | binding result
B1 | binds
B2 | binds
B3 | binds
B4 | binds
B5 | binds
B6 | binds
B7 | no binding
B8 | no binding
